Assay results as given in PMC10536834, “Elucidating the Role of a Calcium-Binding Loop in an x-Prolyl Aminodipeptidase from Lb. helveticus” (ACS Omega, 2023).
Where a chain is given by its changes, count along the chain named. In names and notes the source's numbering stands.

B1: PepX (x-prolyl aminodipeptidase) from Lactobacillus helveticus (Lactobacillus helveticus) (protein)
chain: MKYNQYAYVETDFQQQVKELIDINFLPKNYQVWDFSSLLAKLVKNAIAEAKTDAAKNAKLAEFAVSDHQTLADFLKEKPTEIGTKQFYNVALQLLGYHVHYDYDFADPTGFMQRNALPFLQDISDNQKLISAFYRLLNTRAKNGQILLDVMAGKGYFTQFWGQNKFKFFNGKSIPVFDTNKVIREVVYVETDLDTDHDGKSDLIQVTVFRPEETNKGLKVPALYTASPYFGGIIANEKRNHNVDENLSDSTEWNDPQYVHSPIVKAEKPDGSSRPATEEAVHKSSYPLNEYMLARGFASVFAGAIGTRGSDGVRITGAPEETESAAAVIEWLHGDRVAYTDRTRTVQTTADWCNGNIGMTGRSYLGTLQIAIATTGVKGLKTVVSEAAISSWYDYYREHGLVIAPEACQGEDLDLLAETCQSNLWDAGSYLKIKPEYDKMQKQLREKEDRNTGQYSDFWEARNYRHHADGIKCSWISVHGLNDWNVKPKNVYKIWQLVKKMPMKHHLFLHQGPHYNMNNLVSIDFTDLMNLWFVHELLGIENNAYNQWPTVMIQDNLQADKWHEEPDWSNDLGQEKIYYPTDEGELFQDGNGKAQKSFTDVGGIEFKKAGISESDWQYKFICGDEKWAKPSLRFETDEFTHPTTIVGRPEVKVRVSASLPKGEISVALVELGERQRLTATPKFLMHGGQELGYRFGTDTLQEFVPDKKTKAKLITKAHMNLQNFKDMKKPEAIDADKFYDLDFLLQPTYYTIPSGSKLALIIYSTDQGMTKRPLEDETYTIDLANTEIKFYEK
notes: recombinant, N-terminal six-histidine tag, pET14b, E. coli BL21(DE3)pLysS; PepX known to form dimers
B2: PepX (x-prolyl aminodipeptidase) from Lactobacillus helveticus (Lactobacillus helveticus; D196A) (protein)
chain: B1 chain with D196A
notes: as for B1

Substrate: NCC(=O)N1CCC[C@H]1C(=O)Nc1ccc([N+](=O)[O-])cc1
Assay: purified protein
Type: biochemical, Lactobacillus helveticus
Conditions: 50 mM MES pH 6.5, 40 °C, 200 nM enzyme, 75-500 μM substrate

Row | Protein | Km [µM]
1 | B1 | 302
2 | B2 | 315
